For one protein, Km results are on record in article PMC4783942, “Microwave-Assisted Synthesis of Glycoconjugates by Transgalactosylation with Recombinant Thermostable β-Glycosidase from Pyrococcus” (International Journal of Molecular Sciences, 2016).

Substrate in the data set: CC(=O)N[C@@H]1[C@@H](O)[C@H](O)[C@@H](CO)O[C@H]1NC(=S)NCCNC(=O)OC(C)(C)C
The data set is described as follows: transgalactosylation kinetics, HPLC. The data set is classed as biochemical, Pyrococcus woesei. To be noted: acceptor substrate varied, donor lactose, 85 °C thermal heating, citrate-phosphate buffer pH 5.5.

B1: β-glycosidase from Pyrococcus woesei (DSM 3773) (Pyrococcus woesei; T436I) (protein)
chain: MFPEKFLWGVAQSGFQFEMGDKLRRNIDTNTDWWHWVRDKTNIEKGLVSGDLPEEGINNYELYEKDHEIARKLGLNAYRIGIEWSRIFPWPTTFIDVDYSYNESYNLIEDVKITKDTLEELDEIANKREVAYYRSVINSLRSKGFKVIVNLNHFTLPYWLHDPIEARERALTNKRNGWVNPRTVIEFAKYAAYIAYKFGDIVDMWSTFNEPMVVVELGYLAPYSGFPPGVLNPEAAKLAILHMINAHALAYRQIKKFDTEKADKDSKEPAEVGIIYNNIGVAYPKDPNDSKDVKAAENDNFFHSGLFFEAIHKGKLNIEFDGETFIDAPYLKGNDWIGVNYYTREVVTYQEPMFPSIPLITFKGVQGYGYACRPGTLSKDDRPVSDIGWELYPEGMYDSIVEAHKYGVPVYVTENGIADSKDILRPYYIASHIKMIEKAFEDGYEVKGYFHWALTDNFEWALGFRMRFGLYEVNLITKERIPREKSVSIFREIVANNGVTKKIEEELLRG
notes: N-terminal His6-tag (pETDuet-1, tag kept), E. coli Rosetta2(DE3)pLysS; cloned gene differs from AF043283.1 by T436I, as in P. furiosus E08095.1 / AAC44387.1
In the case of B1, the Km (usually the substrate concentration at which the rate is half of its maximum) was determined as 15.6 mM.
